Measured values reported in PMC8113886, “The Rid family member RutC of Escherichia coli is a 3-aminoacrylate deaminase” (The Journal of Biological Chemistry, 2021).

T1: RidA (Salmonella enterica, UniProt Q7CP78)
T1 construct: full-length RidA; purification and tag not described here
T1 sequence (Q7CP78 1-128): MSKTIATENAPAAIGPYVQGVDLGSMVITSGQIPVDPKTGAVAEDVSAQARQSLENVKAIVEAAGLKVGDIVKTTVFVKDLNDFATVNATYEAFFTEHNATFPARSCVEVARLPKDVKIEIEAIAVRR

B1: RutC (Escherichia coli K-12) (protein)
chain: MPKSVIIPAGSSAPLAPFVPGTLADGVVYVSGTLAFDQHNNVLFADDPKAQTRHVLETIRKVIETAGGTMADVTFNSIFITDWKNYAAINEIYAEFFPGDKPARFCIQCGLVKPDALVEIATIAHIAK

Experiments:
RidA = target: T1, RidA; experiment: semicarbazone competition assay, absorbance at […] nm; format: biochemical; details: imine generated in situ by L-amino acid oxidase from 10 mM L-methionine; 10 uM RidA, 50 mM potassium pyrophosphate pH 8.7, 23 °C
purified protein = substrate: NC=CC(=O)O; experiment: purified protein; format: biochemical, Escherichia coli; details: 3-AA generated in situ by 5 uM RutB, varied concentration is ureidoacrylate, not 3-AA, spontaneous deamination not subtracted, 3 uM RutC, 40 mM Tris-HCl pH 8.2, 23 °C

Molecule | semicarbazone competition assay, absorbance at 248 nm (RidA) | Km (purified protein) [mM] | Vmax (purified protein) | kcat (purified protein) [min⁻¹]
CSCCC(=N)C(=O)O [imino derivative of methionine] | RidA showed activity primarily on the imino derivatives of methionine and leucine. | – | – | –
B1 | – | 9.1 ± 1.9 | 31.9 ± 3.9 nmoles of NADPH consumed min^-1 | 52
